Reference: US20190233493A1 (Sanofi, published 2019)
*1 amine or outer side, *2 acyl side, *3 side chain or, on linkers, in order; H or OH if unused. Primed or numbered codes have the meaning given here. Side-chain parts run from the residue outwards. [ ]: non-standard residue; d: D form. The star is where a group is joined. PEG2DGA = 2-[2-[3-[2-[2-(3-aminopropoxy)ethoxy]ethoxy]propylamino-2-oxo-ethoxy]acetyl; TTDS(3) = O=C(CCC(=O)[*:2])NCCCOCCOCCOCCCN[*:1]; Trp(5-OH) = N[C@@H](Cc1c[nH]c2ccc(O)cc12)C(=O)O; Heptadecanoyl = CCCCCCCCCCCCCCCCC(=O)*; γGlu = O=C(O)[C@H](CCC(=O)[*:2])N[*:1]; Pentadecanoyl = CCCCCCCCCCCCCCC(=O)*; Arg(Me) = CNC(=N)NCCC[C@H](N)C(=O)O; Stearoyl = CCCCCCCCCCCCCCCCCC(=O)*; Palmitoyl = CCCCCCCCCCCCCCCC(=O)*; αMeF = C[C@](N)(Cc1ccccc1)C(=O)O; αMeK = C[C@](N)(CCCCN)C(=O)O; Lauroyl = CCCCCCCCCCCC(=O)*; Nle = CCCC[C@H](N)C(=O)O; PEG2′ = PEG2 spacer unit; PEG2″ = not defined here; Aib = CC(C)(N)C(=O)O

T1: RXFP1 receptor (UniProt Q9HBX9 1-757, limits assumed)
T1 sequence (looked up): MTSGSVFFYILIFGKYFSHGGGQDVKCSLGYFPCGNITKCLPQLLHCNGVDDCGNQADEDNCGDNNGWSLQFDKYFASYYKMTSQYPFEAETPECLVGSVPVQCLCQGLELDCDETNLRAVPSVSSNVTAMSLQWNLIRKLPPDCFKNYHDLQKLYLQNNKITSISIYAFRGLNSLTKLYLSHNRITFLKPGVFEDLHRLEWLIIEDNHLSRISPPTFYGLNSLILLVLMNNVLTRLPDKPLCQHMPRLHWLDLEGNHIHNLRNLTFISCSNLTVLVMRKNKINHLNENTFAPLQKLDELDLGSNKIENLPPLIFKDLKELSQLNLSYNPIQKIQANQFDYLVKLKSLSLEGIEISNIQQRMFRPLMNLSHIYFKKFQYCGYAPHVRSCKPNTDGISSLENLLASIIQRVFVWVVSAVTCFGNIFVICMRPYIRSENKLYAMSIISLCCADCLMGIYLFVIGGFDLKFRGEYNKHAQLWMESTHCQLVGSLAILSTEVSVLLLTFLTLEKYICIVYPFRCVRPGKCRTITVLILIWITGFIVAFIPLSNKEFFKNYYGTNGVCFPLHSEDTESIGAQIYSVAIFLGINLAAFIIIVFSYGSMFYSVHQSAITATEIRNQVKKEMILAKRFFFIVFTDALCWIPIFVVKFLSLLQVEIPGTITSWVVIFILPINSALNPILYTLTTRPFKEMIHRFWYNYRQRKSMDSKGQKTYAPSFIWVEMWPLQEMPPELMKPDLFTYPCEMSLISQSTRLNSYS


Molecular target: T1, RXFP1 receptor
Experiment: cell-based or functional assay

Row | Binder | EC50 (nM), OVCAR 5 cells (cAMP) | EMax, OVCAR 5 cells (cAMP)
1 | Ac-LEGREKVRAK(Ac)I[Aib][Aib]EG[Nle]STFS[αMeK]RAK(Ac)K([PEG2′-PEG2′-PEG2′-PEG2′-γGlu-γGlu-γGlu-γGlu-Palmitoyl])-NH2 [peptide of SEQ ID NO: 154] | 0.4 nM | 92%
2 | Ac-LEGREKVRAK(Ac)I[Aib][Aib]EG[Nle]STFS[Aib]RKK(Ac)K([PEG2′-PEG2′-PEG2′-PEG2′-γGlu-γGlu-γGlu-Palmitoyl])-NH2 [peptide of SEQ ID NO: 153] | 0.26 nM | 89%
3 | Ac-LEGREKVRAK(Ac)I[Aib][Aib]EG[Nle]STWS[αMeK]RKK(Ac)[PEG2′][PEG2′][PEG2′]K([γGlu-γGlu-γGlu-γGlu-Palmitoyl])-NH2 [peptide of SEQ ID NO: 17] | 0.17 nM | 95%
4 | Ac-LEGREKVRAK(Ac)I[Aib][Aib]EG[Nle]STWS[αMeK]RKK(Ac)[PEG2″][PEG2″][PEG2″]K([γGlu-γGlu-γGlu-γGlu-Stearoyl])-NH2 [peptide of SEQ ID NO: 16] | 0.02 nM | 87%
5 | Ac-LEGREKVRAK(Ac)I[Aib][Aib]EG[Nle]STFS[αMeK][Arg(Me)]AK(Ac)[PEG2″][PEG2″][PEG2″][PEG2″][γGlu][γGlu][γGlu]K([γGlu-Palmitoyl])-NH2 [peptide of SEQ ID NO: 151] | 0.14 nM | 90%
6 | Ac-LEGREKVRAK(Ac)I[Aib][Aib]EG[Nle]ST[αMeF]S[αMeK]RAK(Ac)[PEG2″][PEG2″][PEG2″][PEG2″][γGlu][γGlu][γGlu]K([γGlu-Palmitoyl])-NH2 [peptide of SEQ ID NO: 152] | 0.04 nM | 91%
7 | Ac-LEGREKVRAQI[Aib][Aib]EG[Nle]STWS[Aib]RKK([γGlu-Palmitoyl])-NH2 (SMILES CCCCCCCCCCCCCCCC(=O)N[C@@H](CCC(=O)NCCCC[C@H](NC(=O)[C@H](CCCCN)NC(=O)[C@H](CCCNC(=N)N)NC(=O)C(C)(C)NC(=O)[C@H](CO)NC(=O)[C@H](Cc1c[nH]c2ccccc12)NC(=O)[C@@H](NC(=O)[C@H](CO)NC(=O)[C@H](CCCC)NC(=O)CNC(=O)[C@H](CCC(=O)O)NC(=O)C(C)(C)NC(=O)C(C)(C)NC(=O)[C@@H](NC(=O)[C@H](CCC(N)=O)NC(=O)[C@H](C)NC(=O)[C@H](CCCNC(=N)N)NC(=O)[C@@H](NC(=O)[C@H](CCCCN)NC(=O)[C@H](CCC(=O)O)NC(=O)[C@H](CCCNC(=N)N)NC(=O)CNC(=O)[C@H](CCC(=O)O)NC(=O)[C@H](CC(C)C)NC(C)=O)C(C)C)[C@@H](C)CC)[C@@H](C)O)C(N)=O)C(=O)O) [peptide of SEQ ID NO: 2] | 24 nM | 100%

The remaining lines, values ahead:

Row | EC50 (nM), OVCAR 5 cells (cAMP) | EMax, OVCAR 5 cells (cAMP) | Binder
8 | 0.06 nM | 90% | Ac-LEGREKVRAK(Ac)I[Aib][Aib]EG[Nle]STWS[Aib]AAK(Ac)K([PEG2DGA-PEG2DGA-γGlu-γGlu-γGlu-Stearoyl])-NH2 [peptide of SEQ ID NO: 156]
9 | 0.28 nM | 86% | Ac-LEGREKVRAK(Ac)I[Aib][Aib]EG[Nle]STFSXRAK(Ac)[PEG2′][PEG2′][PEG2′][PEG2′][γGlu][γGlu]K([γGlu-γGlu-Palmitoyl])-NH2 (not fully specified (some residues); printed as Ac-L-E-G-R-E-K-V-R-A-K(Ac)-I-Aib-Aib-E-G-Nle-S-T-F-S-Mly-R-A-K(Ac)-PEG2-PEG2-PEG2-PEG2-gE-gE-K(gE-gE-Palm)-NH2) [peptide of SEQ ID NO: 160]
10 | 1.17 nM | 95% | Ac-LEGREKVRAK(Ac)I[Aib][Aib]EG[Nle]STWS[Aib]AAK(Ac)K([PEG2′-PEG2′-PEG2′-γGlu-γGlu-γGlu-Stearoyl])-NH2 [peptide of SEQ ID NO: 155]
11 | 0.79 nM | 93% | Ac-LEGREKVRAK(Ac)I[Aib][Aib]EG[Nle]STWS[Aib]RKK(Ac)K([PEG2′-PEG2′-PEG2′-γGlu-γGlu-γGlu-Heptadecanoyl])-NH2 [peptide of SEQ ID NO: 164]
12 | 12.1 nM | 94% | Ac-LEGREKVRAK(Ac)I[Aib][Aib]EGQSTFS[αMeK]RAK(Ac)[PEG2′][PEG2′][PEG2′][PEG2′]K([γGlu-γGlu-γGlu-γGlu-Lauroyl])-NH2 [peptide of SEQ ID NO: 161]
13 | 0.14 nM | 90% | Ac-LEGREKVRAK(Ac)I[Aib][Aib]EG[Nle]ST[Trp(5-OH)]S[Aib]RKK(Ac)K([PEG2′-PEG2′-PEG2′-γGlu-γGlu-γGlu-Stearoyl])-NH2 [peptide of SEQ ID NO: 158]
14 | 0.02 nM | 89% | Ac-LEGREKVRAK(Ac)I[Aib][Aib]EG[Nle]STFS[αMeK]RAK(Ac)[TTDS(3)][TTDS(3)][γGlu][γGlu][γGlu]K([γGlu-Palmitoyl])-NH2 (SMILES CCCCCCCCCCCCCCCC(=O)N[C@@H](CCC(=O)NCCCC[C@H](NC(=O)CC[C@H](NC(=O)CC[C@H](NC(=O)CC[C@H](NC(=O)CCC(=O)NCCCOCCOCCOCCCNC(=O)CCC(=O)NCCCOCCOCCOCCCNC(=O)[C@H](CCCCNC(C)=O)NC(=O)[C@H](C)NC(=O)[C@H](CCCNC(=N)N)NC(=O)[C@](C)(CCCCN)NC(=O)[C@H](CO)NC(=O)[C@H](Cc1ccccc1)NC(=O)[C@@H](NC(=O)[C@H](CO)NC(=O)[C@H](CCCC)NC(=O)CNC(=O)[C@H](CCC(=O)O)NC(=O)C(C)(C)NC(=O)C(C)(C)NC(=O)[C@@H](NC(=O)[C@H](CCCCNC(C)=O)NC(=O)[C@H](C)NC(=O)[C@H](CCCNC(=N)N)NC(=O)[C@@H](NC(=O)[C@H](CCCCN)NC(=O)[C@H](CCC(=O)O)NC(=O)[C@H](CCCNC(=N)N)NC(=O)CNC(=O)[C@H](CCC(=O)O)NC(=O)[C@H](CC(C)C)NC(C)=O)C(C)C)[C@@H](C)CC)[C@@H](C)O)C(=O)O)C(=O)O)C(=O)O)C(N)=O)C(=O)O) [peptide of SEQ ID NO: 157]
15 | 0.38 nM | 105% | Ac-LEGREKVRAK(Ac)I[Aib][Aib]EG[Nle]STWS[Aib]RKK(Ac)K([PEG2′-PEG2′-γGlu-γGlu-PEG2′-γGlu-Palmitoyl])-NH2 [peptide of SEQ ID NO: 165]
16 | 5.3 nM | 87% | Ac-LEGREKVRAK(Ac)I[Aib][Aib]EG[Nle]STWS[Aib]RKK(Ac)K([PEG2′-PEG2′-PEG2′-γGlu-γGlu-γGlu-Pentadecanoyl])-NH2 [peptide of SEQ ID NO: 163]
17 | 0.02 nM | 88% | Ac-LEGREKVRAK(Ac)I[Aib][Aib]EG[Nle]STFS[αMeK]RKK(Ac)[PEG2″][PEG2″][PEG2″][PEG2″][γGlu][γGlu]K([γGlu-γGlu-Palmitoyl])-NH2 [peptide of SEQ ID NO: 159]
